The values below come from US20090247540A1 (published 2009).

Series [1] deals with the molecule itself. Briefly: cell surface cross-linking with DSP, immunoprecipitation, SDS-PAGE.
Series [2] concerns the molecule itself. Kind of series: crystal structure.

B1: EphB2 on PC-3 cells (receptor, human, UniProt P29323 19-1055, looked up)
chain: VEETLMDSTTATAELGWMVHPPSGWEEVSGYDENMNTIRTYQVCNVFESSQNNWLRTKFIRRRGAHRIHVEMKFSVRDCSSIPSVPGSCKETFNLYYYEADFDSATKTFPNWMENPWVKVDTIAADESFSQVDLGGRVMKINTEVRSFGPVSRSGFYLAFQDYGGCMSLIAVRVFYRKCPRIIQNGAIFQETLSGAESTSLVAARGSCIANAEEVDVPIKLYCNGDGEWLVPIGRCMCKAGFEAVENGTVCRGCPSGTFKANQGDEACTHCPINSRTTSEGATNCVCRNGYYRADLDPLDMPCTTIPSAPQAVISSVNETSLMLEWTPPRDSGGREDLVYNIICKSCGSGRGACTRCGDNVQYAPRQLGLTEPRIYISDLLAHTQYTFEIQAVNGVTDQSPFSPQFASVNITTNQAAPSAVSIMHQVSRTVDSITLSWSQPDQPNGVILDYELQYYEKELSEYNATAIKSPTNTVTVQGLKAGAIYVFQVRARTVAGYGRYSGKMYFQTMTEAEYQTSIQEKLPLIIGSSAAGLVFLIAVVVIAIVCNRRGFERADSEYTDKLQHYTSGHMTPGMKIYIDPFTYEDPNEAVREFAKEIDISCVKIEQVIGAGEFGEVCSGHLKLPGKREIFVAIKTLKSGYTEKQRRDFLSEASIMGQFDHPNVIHLEGVVTKSTPVMIITEFMENGSLDSFLRQNDGQFTVIQLVGMLRGIAAGMKYLADMNYVHRDLAARNILVNSNLVCKVSDFGLSRFLEDDTSDPTYTSALGGKIPIRWTAPEAIQYRKFTSASDVWSYGIVMWEVMSYGERPYWDMTNQDVINAIEQDYRLPPPMDCPSALHQLMLDCWQKDRNHRPKFGQIVNTLDKMIRNPNSLKAMAPLSSGINLPLLDRTIPDYTSFNTVDEWLEAIKMGQYKESFANAGFTSFDVVSQMMMEDILRVGVTLAGHQKKILNSIQVMRAQMNQIQSVEGQPLARRPRATGRTKRCQPRDVTKKTCNSNDGKKKGMGKKKTDPGRGREIQGIFFKEDSHKESNDCSCGG
notes: whole, on cells
On to B1, for which the binding result in series [1] is listed as “no binding”.

B2: EphA2 ligand-binding domain (receptor)
chain: EVVLLDFAAAGGELGWLTHPYGKGWDLMQNIMNDMPIYMYSVCNVMSGDQDNWLRTNWVYRGEAERIFIELKFTVRDCNSFPGGASSCKETFNLYYAESDLDYGTNFQKRLFTKIDTIAPDEITVSSDFEARHVKLNVEERSVGPLTRKGFYLAFQDIGACVALLSVRVYYKKC
notes: The crystallised domain; It forms dimers in the crystal; also called EphA2 LBD; EphA2-LBD
Turning to B2, the binding result in series [2] was “binds”.
